Reference: patent publication US20140287989A1 (CENTRE NATIONAL DE LA RECHERCHE SCIENTIFIQUE, published 2014)
Like-named read-outs stand apart in the source and are kept apart here. Square brackets hold non-standard residues; d marks the D form. Cha = N[C@@H](CC1CCCCC1)C(=O)O

Tests used:
[1] = biological target: T1, E. coli β clamp (β subunit of DNA polymerase III, dnaN gene product) (E. coli, UniProt P0A988 1-366); test: SPR competition: peptide with β ring injected on immobilized P1
T1 construct: Homodimeric ring; N-tagged protein expressed in BL21 E. coli and purified on Ni-NTA and MonoQ; also called β ring; β protein; not shown: N-terminal tag from the pET15b plasmid

[2] = biological target: T1, E. coli β clamp (β subunit of DNA …); test: as above; remark: listed apart in the source
[3] = biological target: T1, E. coli β clamp (β subunit of DNA …); test: as above; remark: listed apart in the source
[4] = biological target: T1, E. coli β clamp (β subunit of DNA …); test: SPR competition; ΔG = -RT ln Ki

T1 sequence (P0A988 whole entry): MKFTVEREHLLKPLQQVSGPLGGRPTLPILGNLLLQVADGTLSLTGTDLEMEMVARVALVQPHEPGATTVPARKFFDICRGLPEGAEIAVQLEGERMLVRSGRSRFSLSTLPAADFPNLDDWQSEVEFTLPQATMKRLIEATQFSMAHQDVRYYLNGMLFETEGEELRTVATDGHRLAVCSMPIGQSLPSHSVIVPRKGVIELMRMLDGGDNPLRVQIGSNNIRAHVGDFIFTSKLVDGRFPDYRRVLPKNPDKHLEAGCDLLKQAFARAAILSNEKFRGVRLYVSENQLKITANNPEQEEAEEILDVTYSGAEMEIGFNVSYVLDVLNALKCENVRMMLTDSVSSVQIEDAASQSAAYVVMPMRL

B1: P7, Ac-Gln-Cha-Asp-Leu-Phe-OH (peptide)
peptide: Ac-Q[Cha]DLF-OH
SMILES: CC(=O)N[C@@H](CCC(N)=O)C(=O)N[C@@H](CC1CCCCC1)C(=O)N[C@@H](CC(=O)O)C(=O)N[C@@H](CC(C)C)C(=O)N[C@@H](Cc1ccccc1)C(=O)O
notes: X stands for the non-natural residue; also called Ac Q ChaDLF; AcQChaDLF
IC50 [1]: 170 nM
IC50 [2]: 170 nM
IC50 [3]: 170 nM
ΔG [4]: -9.42 kcal/mol
